Laboratory results published in patent US20020173621A1, “Method for producing dimerized polypeptide fusions” (ZymoGenetics, Inc., published 2002).

Legend:
[1] = target: tetrameric PDGF β-receptor analog (purified from pSDL114+pSDL113 co-transfected cells) (human); experiment: saturation binding, analog plated at 12.1 ng/ml on goat anti-human IgG coated wells
[2] = target: tetrameric PDGF β-receptor analog (purified from pSDL114+pSDL113 co-transfected cells) (human); experiment: saturation binding, analog plated at 24.3 ng/ml on goat anti-human IgG coated wells
[3] = target: T1, tetrameric PDGF β-receptor analog (purified from pSDL114+pSDL113 co-transfected cells) (human); experiment: solid phase radioreceptor competition binding assay, analog plated at 48.6 ng/ml, unlabeled PDGF-BB against 125I-labeled PDGF-BBTyr
T1 heavy: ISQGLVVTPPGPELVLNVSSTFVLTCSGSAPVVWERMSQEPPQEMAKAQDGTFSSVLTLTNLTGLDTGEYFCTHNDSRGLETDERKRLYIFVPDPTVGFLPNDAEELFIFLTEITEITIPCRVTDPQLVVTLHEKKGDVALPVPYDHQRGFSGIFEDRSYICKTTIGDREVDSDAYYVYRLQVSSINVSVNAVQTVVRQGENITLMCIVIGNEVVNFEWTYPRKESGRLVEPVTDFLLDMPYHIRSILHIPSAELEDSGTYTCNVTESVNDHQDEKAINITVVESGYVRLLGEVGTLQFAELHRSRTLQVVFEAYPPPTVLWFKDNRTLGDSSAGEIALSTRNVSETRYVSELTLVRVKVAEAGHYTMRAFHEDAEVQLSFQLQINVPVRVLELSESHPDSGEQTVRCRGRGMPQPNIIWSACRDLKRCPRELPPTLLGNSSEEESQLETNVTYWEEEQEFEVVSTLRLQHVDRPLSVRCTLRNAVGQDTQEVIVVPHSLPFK
T1 light: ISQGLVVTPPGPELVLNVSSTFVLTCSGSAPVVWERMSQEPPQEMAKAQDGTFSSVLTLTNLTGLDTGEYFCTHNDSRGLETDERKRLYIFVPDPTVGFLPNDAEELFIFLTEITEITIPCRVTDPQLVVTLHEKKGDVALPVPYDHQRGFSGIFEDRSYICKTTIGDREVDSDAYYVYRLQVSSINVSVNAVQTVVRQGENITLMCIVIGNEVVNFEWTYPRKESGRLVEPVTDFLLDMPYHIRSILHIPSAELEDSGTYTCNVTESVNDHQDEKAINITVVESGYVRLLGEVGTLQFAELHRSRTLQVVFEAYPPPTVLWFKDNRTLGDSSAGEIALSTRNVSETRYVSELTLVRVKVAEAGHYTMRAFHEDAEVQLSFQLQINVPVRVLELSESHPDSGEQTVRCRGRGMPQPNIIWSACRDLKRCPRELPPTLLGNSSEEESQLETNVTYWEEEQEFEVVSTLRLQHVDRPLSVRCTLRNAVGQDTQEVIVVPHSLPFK
Protocol: In a solid phase radioreceptor competition binding assay (RRA), the wells of 96-well microtiter plates were coated with 100 μl of 2 μg/ml affinity purified goat anti-human IgG (Cappel Labs) diluted in 0.1 M Na₂HCO₃, pH 9.6. After an eighteen hour incubation at 4° C., the wells were washed once with ELISA C. The wells were blocked by incubation for 2 hours at 37° C. with 175 μl/well ELISA B. […] The unbound receptor was removed, and the test wells were incubated with increasing concentrations of serially diluted, unlabeled PDGF-BB (diluted in binding media. Following a two hour incubation at room temperature, the wells were washed three times with binding media. One hundred microliters of 5 ng/ml ¹²⁵I-labeled PDGF-BBTyr (Example 18.F.) was added to each well, and the plates were incubated for an additional two hours at room temperature. The wells were washed three times with binding media followed by a 5 minute incubation with 100 μl/well of 0.1 M citrate, pH 2.5. The samples were harvested and counted in a gamma counter.

PDGF-BBTyr (PDGF-BB mutant molecule having a tyrosine replacing the phenylalanine at position 23) (from UniProt P01127) (ligand)
half-maximal binding [1]: 0.8 ng/mL
half-maximal binding [2]: 0.82 ng/mL

B1: PDGF-BB (ligand)
chain: SLGSLTIAEPAMIAECKTRTEVFEISRRLIDRTNANFLVWPPCVEVQRCSGCCNNRNVQCRPTQVQLRPVQVRKIEIVRKKPIFKKATVTLEDHLACKCETVAAARPVT
IC50 [3]: 8 ng/mL
